One block for each molecule: values may come before it.
What was measured:
[1] = biological target: human c-NADP-ME H51A/D90A (human) (UniProt P48163); assay: AUC; sedimentation velocity, 0.3 mg/ml protein, 30 mM Tris-acetate pH 7.4, without urea, 20°C, 42,000 rpm, SEDFIT continuous size distribution
[2] = biological target: human c-NADP-ME H51A/D139A (human) (UniProt P48163); assay: as above
[3] = biological target: human c-NADP-ME H142A (human) (UniProt P48163); assay: as above
[4] = biological target: human c-NADP-ME H142A/D568A (human) (UniProt P48163); assay: as above
[5] = biological target: human c-NADP-ME W572A (human) (UniProt P48163); assay: as above
[6] = biological target: T1, human cytosolic NADP+-dependent malic enzyme, wild type (human), P48163; assay: AUC; sedimentation velocity, 0.3 mg/ml protein, preincubated with 2 M urea in 30 mM Tris-acetate pH 7.4 at 25°C for 16 h, run at 20°C; conditions: remark: other sources report otherwise
T1 chain: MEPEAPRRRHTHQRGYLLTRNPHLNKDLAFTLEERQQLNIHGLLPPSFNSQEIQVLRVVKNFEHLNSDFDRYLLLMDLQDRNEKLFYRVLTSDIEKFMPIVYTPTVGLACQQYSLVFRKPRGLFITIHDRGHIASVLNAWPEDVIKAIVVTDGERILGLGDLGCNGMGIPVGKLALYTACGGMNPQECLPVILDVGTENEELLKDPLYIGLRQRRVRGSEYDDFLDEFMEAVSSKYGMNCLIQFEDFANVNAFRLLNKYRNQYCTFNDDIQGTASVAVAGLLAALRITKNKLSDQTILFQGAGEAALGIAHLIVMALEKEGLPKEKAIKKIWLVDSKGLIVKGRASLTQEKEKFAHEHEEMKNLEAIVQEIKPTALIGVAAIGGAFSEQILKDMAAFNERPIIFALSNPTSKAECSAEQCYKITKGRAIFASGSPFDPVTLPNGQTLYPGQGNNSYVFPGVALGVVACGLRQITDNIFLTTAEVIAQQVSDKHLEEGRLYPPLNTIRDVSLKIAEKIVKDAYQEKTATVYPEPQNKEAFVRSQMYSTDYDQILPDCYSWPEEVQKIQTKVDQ

Molecule: human c-NADP-ME H51A/D139A (from UniProt P48163 13-564) (enzyme)
- stoichiometry N [2]: 2

Molecule: human c-NADP-ME H142A (from UniProt P48163 13-564) (enzyme)
- stoichiometry N [3]: 2

Molecule: human c-NADP-ME H142A/D568A (from UniProt P48163 13-564) (enzyme)
- stoichiometry N [4]: 2

B1: human cytosolic NADP+-dependent malic enzyme, wild type, P48163 1-572 (enzyme)
chain: MEPEAPRRRHTHQRGYLLTRNPHLNKDLAFTLEERQQLNIHGLLPPSFNSQEIQVLRVVKNFEHLNSDFDRYLLLMDLQDRNEKLFYRVLTSDIEKFMPIVYTPTVGLACQQYSLVFRKPRGLFITIHDRGHIASVLNAWPEDVIKAIVVTDGERILGLGDLGCNGMGIPVGKLALYTACGGMNPQECLPVILDVGTENEELLKDPLYIGLRQRRVRGSEYDDFLDEFMEAVSSKYGMNCLIQFEDFANVNAFRLLNKYRNQYCTFNDDIQGTASVAVAGLLAALRITKNKLSDQTILFQGAGEAALGIAHLIVMALEKEGLPKEKAIKKIWLVDSKGLIVKGRASLTQEKEKFAHEHEEMKNLEAIVQEIKPTALIGVAAIGGAFSEQILKDMAAFNERPIIFALSNPTSKAECSAEQCYKITKGRAIFASGSPFDPVTLPNGQTLYPGQGNNSYVFPGVALGVVACGLRQITDNIFLTTAEVIAQQVSDKHLEEGRLYPPLNTIRDVSLKIAEKIVKDAYQEKTATVYPEPQNKEAFVRSQMYSTDYDQILPDCYSWPEEVQKIQTKVDQ
- stoichiometry N [6]: 2

Now from value to molecule:

- stoichiometry N [1]: 2
Molecule: human c-NADP-ME H51A/D90A (from UniProt P48163 13-564) (enzyme)

- stoichiometry N [5]: 2
Molecule: human c-NADP-ME W572A (from UniProt P48163 13-564) (enzyme)

— article PMC3528742
